Experimental data from the DeepSol protein solubility set.

Experiment: soluble on expression in E. coli; label from the status in PepcDB or PDB records

Row | Sequence | soluble on expression in E. coli
1 | MPGYAQYRSFSEDLSMNMEEIVALSVKHNVSDLHLCSAWPARWRIRGRMEAAPFDAPDVEELLREWLDDDQRAILLENGQLDFAVSLAENQRLRGSAFAQRQGISLALRLLPSHCPQLEQLGAPPVLPELLKSENGLILVTGATGSGKSTTLAAMVGYLNQHADAHILTLEDPVEYLYASQRCLIQQREIGLHCMTFASGLRAALREDPDVILLGELRDSETIRLALTAAETGHLVLATLHTRGAAQAVERLVDSFPAQEKDPVRNQLAGSLRAVLSQKLEVDKQEGRVALFELLINTPAVGNLIREGKTHQLPHVIQTGQKVGMLTFQQSYQQRVGEGRL | not soluble
2 | MPHDPGATRLLAISPHLDDAVLSFGAGLAQAAQDGANVLVYTVFAGAAQPPYSPAAQRMHTIWGLAPDDDAVLYRRKEDIAALDHLRVAHRHGRFLDSIYRKLPDGRWLTAHVEGRQKLAVNDHSPDSDHDLVGEVADDIRSIIDEFDPTLVVTCAAIGEHPDHEATRDAALFATHEKNVPVRLWEDLPYAVFKSGAVELPQGFRLGSADVSSVKPEMRSQKFQAVERYSSQMVLLNGSENNLFDRLDEHARQNAPHGGYGETTWPVVRSDDS | soluble
3 | MPIASYAQELKLALHQYPNFPSEGILFEDFLPIFRNPGLFQKLIDAFKLHLEEAFPEVKIDYIVGLESRGFLFGPTLALALGVGFVPVRKAGKLPGECFKATYEKEYGSDLFEIQKNAIPAGSNVIIVDDIIATGGSAAAAGELVEQLEANLLEYNFVMELDFLKGRSKLNAPVFTLLNAQKEALKK | soluble
4 | MPIKSVAIIGAGIAGLTAALAFARHGIDCDIIEQTGELAEVGAGLQLSPNAARILATLGVLPDIEARWTEPVSVDLASGKSLTTLLSLPMGAVARSRWGAPYGVLHRSTLQSALLQAVTRNPLCRLHLGKRIENATADVIAATTFRDHDLIVGADGVWSAARFSVPAAPTATFSGNVAWRFTVAAEEVPSAFNKTTVTAYLGSRGHIVAYPLKEVGGFNIVAIALGADPGATWRAESSGRQKALLLEQFRDFSPDIVRLLDSSENPTFWPLYQAGPGRWHNGRDTVLIGDAAHAMMPFAAQGAAMAIEDAFELAGTMAGSNGEKPLPVPQALAAFEALRLPRIEKARKRASLNRFAYHARGPVRIARDLVFSTRPPEAFLKDFDWLYGYHARGLEHHHHHH | soluble
5 | MPISIQQISYIHPDKEVLFSDLNFAISKGQKLGLVGNNGCGKSTLLQIIAGQLAPSSGVIVRPDDLYYIPQHFGQYDSLTIAQALQIDHKQKALHAILAGDASIENFSILNDDWNIEERSVAALDSWGLGQFPLSYPMNLLSGGEKTRVFLAGMDIHNPSVILMDEPTNHLDSSGRQRLYDWVEKWRSTLLVVSHDRTLLNLLPEICELEKHQISYYGGNYEFYKEQKTLMQEALQQRIEEKEKALRTARKVARETAERRDKQNVRGEKRNLKKGVPRIVLNGLQSKSEKSTAKLTGAHQEKAEKLTDERNQLRSSLSPTAALKTDFNNSGLHTGKILVTAEEINFGYHPDQPQLWQAPLSFQLKSGDRLRIEGGNGSGKTTLLKIITGQLQPLKGTLIQANFTYVYLNQEYSIINDRNSILEQAYAFNGRNLPEHEIKIILNRYLFPASEWDKSCRKLSGGEKMRLAFCCLMISNNMPDMFILDEPTNNLDIQSIEIITATIKNYAGTVIAISHDNYFIQEIGVEQSIFLS | not soluble
6 | MPKERKERSVSLDKYKRSPLCCEASLALKPSEKQVKEWEEARCPVCMEHPHNGILLICSSYENGCRPYMCDTSHRHSNCFDQFRKASKEKPSLSLLREEEESNEPTEMEDVDSDSTAVNLLGEAASEITVVDLSDGERGEEEVEEEEEEVVVEEEEEGIVTTEEDQEKNKPQKLTCPLCRGHIKEWVVVKAARCFMNSKHRSCSCETCDFSGSYSDLRKHARLLHPGVRPSEADPERQRSWRRLERQSDLGDLLSTLQSSFGGDEISNDDGFLFADTRLLTVYFLIRVFRPESSGSRSSSWSGTSRARTHTSGRRRSSRPASLWGESYEGNTGTSPRDEENNQSSDEQVSGTRRRRSRRRTVIDDDDEEEEP | not soluble
7 | MPKIPITLITGFLGSGKTSFLSEYLNQTDHQGVALIINEIGQAALDQRILSVQYCGEKMLYLNAGCVCCNKRLDLVESLKATLNNYEWHGEILRRIIIETTGLANPAPILWTILSDTFLGVHFEIQSVVACVDALNAREHLTNNEAKEQIVFADSVLLTKTDLQNDSAALTKLKERIQALNPSAEIFDKRAIDYESLFSRKNRARNFMPLEHHHHHH | not soluble
